Laboratory results: patent US20220112288A1 (published 2022)

Tests used:
[1] = biological target: T1, Recombinant human CD4 (R&D Systems, Cat. 10327-CD) (human, UniProt P01730 26-390, limits assumed); experiment: BLI Octet, non-clonal supernatant on AMC sensor, 100 nM human CD4, 1:1 local fit;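 also: Single-concentration kinetics per supernatant, with the 1:1 model fitted across both the association and dissociation phases of the sensorgram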
T1 construct: Bought reagent; also called huCD4

[2] = biological target: T1, Recombinant human CD4 (R&D Systems, …); experiment: BLI Octet, non-clonal supernatant on AMC sensor, 100 nM human CD4;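 also: hybridoma supernatants diluted 1:3, antibodies captured on AMC biosensors, association and dissociation with CD4 followed, curves smoothed and fit locally with 1:1 binding model for single-point kinetics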
human CD4 = biological target: T2, human CD4 (human, UniProt P01730 26-458); experiment: FACS, clonal hybridoma supernatant on human PBMCs
T2 construct: whole, on cells; also called hCD4

| Binder | Kd [1] [nM] | koff [1] [s⁻¹] | kon [1] [M⁻¹ s⁻¹] | Response [2] | % CD4 Stain (human CD4) [%] | gMFI of CD4+ (human CD4) [gMFI] |
| --- | --- | --- | --- | --- | --- | --- |
| 75110_14P05A (antibody, V domains shown, Tested as non-clonal AlivaMab Mouse Kappa hybridoma supernatant, captured by anti-mouse IgG Fc sensor) VH: EVQLVESGGGLVQPGGSLRLSCAASGFTFSSYDVHWVRQATGKGLEWVSTIGTAGDTYYPGSVKGRFTISRENAKNSLYLQMNSLRAGDTAVYYCARGGFYYYGMDVWGQGTTVTVSS VL: EIVLTQSPGTLSLSPGERATLSCRASQSVSSSYLAWYQQKPGQTPRLLIYGASSRATGIPDRFSGSGSGTDFTLTISRLEPEDFAVFYCQQSGSSPFTFGPGTKVDVK | 12.3 | 0.00185 | 150000 | 0.149 | – | – |
| 75110_01E08A (antibody, V domains shown, Tested as non-clonal AlivaMab Mouse Kappa hybridoma supernatant, captured by anti-mouse IgG Fc sensor) VH: EVQLVESGGGLVQPGGSLRLSCAASGFTFNNYDMHWVRQATGKGLEWVSTIGTAGDTYYPASVKGRFTIYRENAKNSLYLQMNSLRAGDTAVYYCARGGDYYYGMDVWGQGTTVTVSS VL: not shown | 10 | 0.0014 | 140000 | 0.1 | – | – |
| 75110_10L22A (antibody, V domains shown, Tested as non-clonal AlivaMab Mouse Kappa hybridoma supernatant, captured by anti-mouse IgG Fc sensor) VH: EVQLVESGGGLVQPGGSLRLSCAASGFTFSSYDMHWVRQATGKGLEWVSTIGTAGDTYYPGSVKGRFTISRENAKNSLYLQMNGLRAGDTAVYYCARGNYFYYGVDVWGQGTTVTVSS VL: not shown | 117 | 0.0065 | 55700 | 0.113 | – | – |
| 75110_02E22A (antibody, V domains shown, Tested as clonal hybridoma supernatant (AlivaMab Mouse Kappa; anti-mouse Fc detection); also called Sib7.1) VH: QVQLQESGPGLVKPSETLSLTCTVSGGSISSFYWSWIRQPAGKGLEWIGRIYTSGSTNYNPSLKSRVTMSVDTSKNQFSLKLSSVTAADTAVYYCARELEKRNYYGMDVWGQGTTVTVSS VL: DIQMTQSPSSLSASVGDRVTITCQASHDISNYLNWYQQKPGKAPKLLIFDASTLETGVPSRFSGSGSGTYFTFTIRSLQPEDIATYYCQQYDSLPLTFGGGTKVEIK | – | – | – | – | 32.8 | 268000 |
| 75110_11D03A (antibody, V domains shown, Tested as non-clonal AlivaMab Mouse Kappa hybridoma supernatant, captured by anti-mouse IgG Fc sensor) VH: EVQLVESGGGLVQPGGSLRLSCAASGFTFSSYWMSWVRQAPGKGLEWVANINQDGNEKYYVDSVKGRFTISRDNAKNSLFLQMNSLRAEDTAVYYCAREGGQWLALDYWGQGALVTVSS VL: DIQMTQSPSSVSASVGDRVTITCRASQGISSWLAWYQQKPGKAPKFLISGASSLQSGVPSRFSGSGSGTDFTLTISSLQPEDFATYYCQQANSFPWTFGQGTKVEIK | 4.67 | 0.000524 | 112000 | 0.177 | – | – |
| 75110_09G15A (antibody, V domains shown, Tested as non-clonal AlivaMab Mouse Kappa hybridoma supernatant, captured by anti-mouse IgG Fc sensor) VH: EVQLVESGGGLVQPGGSLRLSCAASGFTFSDYWMSWVRQAPGKGLEWVANINQDGSEKYSVDSVKGRFTISRDNAKNSLYLQMNSLRAEDTAIFYCAREGGQWLALDYWGQGTLVTVSS VL: DIQMTQSPSSVSASVGDRVTITCRASQGISSWLAWYQQKPGKAPKLLIYGASSLQSGVPSRFSGSGSGTDFTLTINSLQPEDFTTYYCQQANIFPWTFGQGTKVEIK | 290 | 0.011 | 37000 | 0.1 | – | – |
| 75110_02I16A (antibody, V domains shown, Tested as clonal hybridoma supernatant (AlivaMab Mouse Kappa; anti-mouse Fc detection); also called 75110_02116A) VH: QVQLQQWGAGLLKPSETLSLTCDVYGGSFSGYYWTWIRQPPGKGLEWIGEINHSGTTNSNPSLKSRVTISVDTSKSQFSLRLSSVTAADTAVYFCTRELNWFDPWGQGTLVTVSS VL: DIQMTQSPSSVSASVGDRVTITCRASQDIANWLAWYQQKPGKAPQLLIYAASSLLGGVPSRFSGSGSGADFTLTISSLHPEDFATYYCQQANSFPYTFGQGTKLEIK | – | – | – | – | 36.1 | 145000 |

Other lines, results leading:

| Kd [1] [nM] | koff [1] [s⁻¹] | kon [1] [M⁻¹ s⁻¹] | Response [2] | % CD4 Stain (human CD4) [%] | gMFI of CD4+ (human CD4) [gMFI] | Binder |
| --- | --- | --- | --- | --- | --- | --- |
| 19.2 | 0.00274 | 143000 | 0.105 | – | – | 75110_14N19A (antibody, V domains shown, Tested as non-clonal AlivaMab Mouse Kappa hybridoma supernatant, captured by anti-mouse IgG Fc sensor) VH: QVQLQESGPGLVKPSETLSLTCTVSGGSISRYYWSWIRQPAGKGLEWIGRICTSENPNYNPALKSRVTMSVDTSKNQFSLKLSSVTAADTAVYYCARELERLNYYGMDVWGQGTTVTVSS VL: DIQMTQFPSSLSASVGDRVTITCQASQDISNYLNWYQQKPGKAPKLLIYDASNLESGVPSRFSGRGSGTDFTFTISSLQPEDFATFYCQQYDTLPITFGQGTRLEIK |
| < 0.001 | < 1e-07 | 42700 | 0.0852 | – | – | 75110_14I16A (antibody, V domains shown, Tested as non-clonal AlivaMab Mouse Kappa hybridoma supernatant, captured by anti-mouse IgG Fc sensor) VH: QVQLQESGPGLVKPSETLSLTCTVSNGSISSYYWSWIRQSAGKGLEWIGRIYTSGSTNYNPSLKSRVTMLVDTSKNQFSLKLSSVTAADTAVYYCARDREDYYYYGMDVWGQGTTVTVSS VL: DIQMTQSPSSLSASVGDRVTITCQASHDISNYLNWYQQKPGKAPKLLLYYASNLETGVPSRFSGSGSGTDFTFTITSLQPEDIGTYSCQQYDNLPLTFGGGTKVEIK |
| – | – | – | – | 28.2 | 203000 | 75110_02K11A (antibody, V domains shown, Tested as clonal hybridoma supernatant (AlivaMab Mouse Kappa; anti-mouse Fc detection); also called Sib3.1) VH: QVQLQESGPGLVKPSQTLSLTCTVSGGSISSGFYYWTWIRQHPGKGLEWIGYISYSGNTYYNPSFKSRLTISVDTSKSQFSLKLSSVTAADTAVYYCARDRPSNFDAFDIWGQGTMVTVSS VL: not shown |
| 6 | 0.0013 | 220000 | 0.25 | – | – | 75110_03D16A (antibody, V domains shown, Tested as non-clonal AlivaMab Mouse Kappa hybridoma supernatant, captured by anti-mouse IgG Fc sensor) VH: EVQLVESGGGLVQPGGSLRLSCAASGFTFSSYWMSWVRQAPGKGLEWVANINQDGGEKYYVDSVKGRFTISRDNAKNSLYLQMNSLRAEDTAVYYCVREGGQWLALDYWGQGTLVTVSS VL: DIQMTQSPSSVSASVGDRVTITCRASQGISSWLTWYQQKPGKAPKFLIYAASSLQSGVPSRFSGSGFGTDFTLTISSLQPEDFATYYCQQANSFPWTFGQGTKVEIK |
| 11 | 0.0013 | 120000 | 0.28 | – | – | 75110_01A06A (antibody, V domains shown, Tested as non-clonal AlivaMab Mouse Kappa hybridoma supernatant, captured by anti-mouse IgG Fc sensor) VH: EVQLVESGGGLVQPGGSLRLSCAASGFTFSSYWMSWVRQAPGKGLEWVANINEDGNEKYYVDSVKGRLTISRDNAKNSLYLQMNSLRAEDTAVYFCAREGGQWLSLDYWGQGALVTVSS VL: DIQMTQSPSSVSASVGDRVSITCRASQGISSWLAWYQQKPGKAPKILIYGASSLQSGVPSRFSGSGSGTDFTLTISSLQPEDFATYYCQQANSFPWTFGQGTKVEIK |
| 6.3 | 0.0018 | 290000 | 0.23 | – | – | 75110_04K10A (antibody, V domains shown, Tested as non-clonal AlivaMab Mouse Kappa hybridoma supernatant, captured by anti-mouse IgG Fc sensor) VH: EVQLVESGGGLVQPGGSLRLSCAASGFTFSSYWMSWVRQAPGKGLEWVANINQDGSEKYYVDSVKGRFTISRDNAKNSLYLQLNSLRAEDTAMYYCAREGGQWLSLDYWGQGTLVTVSS VL: DIQMTQSPSSVSASVGDRVTITCRASQGISSWLAWYQQKPGKAPKVLIYGVSSFQSGVPSRFSGSGSGTDFILTISSLQPEDFATYYCQQANSFPWTFGQGTKVEIK |
| 3.1 | 0.00035 | 110000 | 0.2 | – | – | 75110_07H07A (antibody, V domains shown, Tested as non-clonal AlivaMab Mouse Kappa hybridoma supernatant, captured by anti-mouse IgG Fc sensor) VH: EVQVVESGGGLVQPGGSLRLSCAASGFTFSSYWMSWVRQAPGKGLEWVANIKEEGSEKYYVDSVKGRFTISRDNAKNSLYLQMNSLRAEDTAVYYCVREGGQWLALDYWGQGTLVTVSS VL: DIQMTQSPSSVSGSVGDRVTITCRASQGISSWLAWYQQKPGKAPKLLIFGASSLQSGVPSRFSGSGSGTDFTLTISSLQPEDFATYYCQQANSFPWTFGQGTKVQIK |
| 6.7 | 0.00069 | 100000 | 0.16 | – | – | 75110_02N15A (antibody, V domains shown, Tested as non-clonal AlivaMab Mouse Kappa hybridoma supernatant, captured by anti-mouse IgG Fc sensor) VH: EVQLVESGGGLVQPGGSLRLSCAASGFTFSSYWMSWVRQAPGKGLEWVANINEDGNEKYYVDSVKGRFTISRDNAKNSLFLQMNSLRAEDTAVYFCAREGGQWLALDHWGQGALVTVSS VL: DIQMTQSPSSVSASVGDRVTITCRASQGISSWLAWYQQKPGKAPKFLISGASSLQSGVPSRFSGSGSGTDFTLTISSLQPEDFATYYCQQANSFPWTFGQGTKVEFK |
